Measured values from PMC2877795, “Laminin chain assembly is regulated by specific coiled-coil interactions” (Journal of Structural Biology, 2010).
Blank lines part the entries; values can stand above or below the binder they belong to.

Legend:
Conditions in all cases: both partners purified
[1] = molecular target: T1, recombinant mouse laminin γ2 chain C-terminal coiled-coil fragment (949–1191) (mouse, UniProt Q61092 949-1191); assay: native gel or EMSA; mixtures of one β and one γ chain fragment; 10% non-denaturing PAGE (acid gels for basic complexes); mixtures reduced, heated to 70 °C for 5 min and cooled; run overnight at 50 V; Coomassie; bands confirmed by in-gel trypsin digestion and mass spectrometry
T1 construct: two residues (GlySer) left from the protease recognition site after thrombin cleavage; laminin γ2 chain, mouse, C-terminal coiled-coil fragment, residues 949-1191 of the native chain (243 residues); source: E. coli JM109(DE3), purified (Ni2+-Sepharose, denaturing, 8 M urea), 6xHis tag removed by thrombin; not shown: 6xHis, N-terminal, cleaved; pPEP-T leader (short C-terminal fragment of the …)
T1 sequence: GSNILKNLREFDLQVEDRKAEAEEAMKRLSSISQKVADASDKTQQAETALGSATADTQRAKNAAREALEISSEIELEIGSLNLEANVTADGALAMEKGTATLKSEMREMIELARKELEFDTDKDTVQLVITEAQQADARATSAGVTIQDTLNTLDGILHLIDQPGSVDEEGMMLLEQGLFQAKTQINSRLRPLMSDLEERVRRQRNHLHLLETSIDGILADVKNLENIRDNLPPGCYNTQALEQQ

[2] = molecular target: T2, recombinant mouse laminin γ3 chain C-terminal coiled-coil fragment (1344–1581) (mouse, UniProt Q9R0B6 1344-1581); assay: as above
T2 construct: two residues (GlySer) left from the protease recognition site after thrombin cleavage; laminin γ3 chain, mouse, C-terminal coiled-coil fragment, residues 1344-1581 of the native chain (238 residues); source: E. coli JM109(DE3), purified (Ni2+-Sepharose, denaturing, 8 M urea), 6xHis tag removed by thrombin; not shown: 6xHis, N-terminal, cleaved
T2 sequence: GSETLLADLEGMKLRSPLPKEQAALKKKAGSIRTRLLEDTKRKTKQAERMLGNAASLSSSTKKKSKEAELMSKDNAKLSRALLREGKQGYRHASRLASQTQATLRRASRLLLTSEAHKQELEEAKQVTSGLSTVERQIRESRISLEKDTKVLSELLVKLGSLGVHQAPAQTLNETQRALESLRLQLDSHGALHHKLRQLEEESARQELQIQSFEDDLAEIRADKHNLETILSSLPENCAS

[3] = molecular target: T3, recombinant mouse laminin γ1 chain C-terminal coiled-coil fragment (1362–1607) (mouse, UniProt P02468 1362-1607); assay: as above
T3 construct: two residues (GlySer) left from the protease recognition site after thrombin cleavage; laminin γ1 chain, mouse, C-terminal coiled-coil fragment, residues 1362-1607 of the native chain (246 residues); source: E. coli JM109(DE3), purified (Ni2+-Sepharose, denaturing, 8 M urea), 6xHis tag removed by thrombin; not shown: 6xHis, N-terminal, cleaved; pPEP-T leader (short C-terminal fragment of the …)
T3 sequence: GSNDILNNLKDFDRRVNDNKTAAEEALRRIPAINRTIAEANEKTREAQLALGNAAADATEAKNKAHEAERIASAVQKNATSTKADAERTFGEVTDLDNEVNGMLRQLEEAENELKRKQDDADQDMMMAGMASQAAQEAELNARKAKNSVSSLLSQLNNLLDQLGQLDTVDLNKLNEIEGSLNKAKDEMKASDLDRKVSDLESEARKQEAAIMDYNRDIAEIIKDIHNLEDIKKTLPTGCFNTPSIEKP

[4] = molecular target: T4, β1γ1 complex of the recombinant mouse laminin coiled-coil fragments (mouse, UniProt P02469 1561-1786; P02468 1362-1607); assay: native gel or EMSA; mixtures of one α, one β and one γ chain fragment; 10% non-denaturing PAGE (acid gels for basic complexes); mixtures reduced, heated to 70 °C for 5 min and cooled; run overnight at 50 V, room temperature, no cooling; Coomassie; bands confirmed by in-gel trypsin digestion and mass spectrometry
T4 construct: two residues (GlySer) left from the protease recognition site after thrombin cleavage; laminin β1 chain, mouse, residues 1561-1786 of the native chain; as m6; laminin γ1 chain, mouse, residues 1362-1607 of the native chain; as m9; heterodimer by AUC; in the αβγ tests all three chains were mixed, the βγ complex was not isolated beforehand; source: mixture of the purified E. coli fragments; not …
T4 sequence 1: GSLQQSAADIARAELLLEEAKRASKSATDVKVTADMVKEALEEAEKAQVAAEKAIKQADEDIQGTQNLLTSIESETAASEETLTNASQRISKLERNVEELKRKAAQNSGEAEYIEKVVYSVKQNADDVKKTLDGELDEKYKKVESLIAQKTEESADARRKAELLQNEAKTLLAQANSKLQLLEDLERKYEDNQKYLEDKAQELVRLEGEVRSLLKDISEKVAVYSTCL
T4 sequence 2: T3 sequence

[5] = molecular target: T5, β2γ1 complex of the recombinant mouse laminin coiled-coil fragments (mouse, UniProt Q61292 1575-1799; P02468 1362-1607); assay: as above
T5 construct: two residues (GlySer) left from the protease recognition site after thrombin cleavage; laminin β2 chain, mouse, residues 1575-1799 of the native chain; as m7; laminin γ1 chain, mouse, residues 1362-1607 of the native chain; as m9; in the αβγ tests all three chains were mixed, the βγ complex was not isolated beforehand; source: mixture of the purified E. coli fragments; not shown: 6xHis, …
T5 sequence 1: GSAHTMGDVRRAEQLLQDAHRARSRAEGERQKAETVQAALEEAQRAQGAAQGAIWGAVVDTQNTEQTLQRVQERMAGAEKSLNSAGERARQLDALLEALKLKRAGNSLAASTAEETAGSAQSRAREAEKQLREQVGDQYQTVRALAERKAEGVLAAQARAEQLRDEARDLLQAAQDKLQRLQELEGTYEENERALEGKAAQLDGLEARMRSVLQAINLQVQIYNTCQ
T5 sequence 2: T3 sequence

[6] = molecular target: T6, β2γ2 complex of the recombinant mouse laminin coiled-coil fragments (mouse, UniProt Q61292 1575-1799; Q61092 949-1191); assay: as above
T6 construct: two residues (GlySer) left from the protease recognition site after thrombin cleavage; laminin β2 chain, mouse, residues 1575-1799 of the native chain; as m7; laminin γ2 chain, mouse, residues 949-1191 of the native chain; as m10; in the αβγ tests all three chains were mixed, the βγ complex was not isolated beforehand; also called β2γ2 dimer; source: mixture of the purified E. coli fragments; not …
T6 sequence 1: T5 sequence 1
T6 sequence 2: T1 sequence

[7] = molecular target: T7, β2γ3 complex of the recombinant mouse laminin coiled-coil fragments (mouse, UniProt Q61292 1575-1799; Q9R0B6 1344-1581); assay: as above
T7 construct: two residues (GlySer) left from the protease recognition site after thrombin cleavage; laminin β2 chain, mouse, residues 1575-1799 of the native chain; as m7; laminin γ3 chain, mouse, residues 1344-1581 of the native chain; as m11; in the αβγ tests all three chains were mixed, the βγ complex was not isolated beforehand; source: mixture of the purified E. coli fragments; not shown: 6xHis, …
T7 sequence 1: T5 sequence 1
T7 sequence 2: T2 sequence

[8] = molecular target: T8, β1γ3 complex of the recombinant mouse laminin coiled-coil fragments (mouse, UniProt P02469 1561-1786; Q9R0B6 1344-1581); assay: as above
T8 construct: two residues (GlySer) left from the protease recognition site after thrombin cleavage; laminin β1 chain, mouse, residues 1561-1786 of the native chain; as m6; laminin γ3 chain, mouse, residues 1344-1581 of the native chain; as m11; in the αβγ tests all three chains were mixed, the βγ complex was not isolated beforehand; source: mixture of the purified E. coli fragments; not shown: 6xHis, …
T8 sequence 1: T4 sequence 1
T8 sequence 2: T2 sequence

B1: recombinant mouse laminin β2 chain C-terminal coiled-coil fragment (1575–1799) (domain or fragment)
chain: T5 sequence 1
notes: two residues (GlySer) left from the protease recognition site after thrombin cleavage; laminin β2 chain, mouse, C-terminal coiled-coil fragment, residues 1575-1799 of the native chain (225 residues); source: E. coli JM109(DE3), purified (Ni2+-Sepharose, denaturing, 8 M urea), 6xHis tag removed by thrombin; not shown: 6xHis, N-terminal, cleaved
binding result [1]: binds | binding result [2]: binds | binding result [3]: binds

B2: recombinant mouse laminin α4 chain C-terminal coiled-coil fragment (616–842) (domain or fragment)
chain: GSASNVYENIANYVSEANETAELALNITDRIYDAVSGIDTQIIYHKDESDNLLNQARELQAKADSSNDEAVADTSRRVGGALWRKGALRDRLNDAVKQLQAAERGDAHQRLGQSKLFIEEANKTTAAVQQVTTPMANNLSNWSQNLQTFDSSAYNTAVDSARDAVRNLTEVVPQLLDQLRTVEQKRPASNISASIQRIRELIAQTRSVASKIQVSMMFDGQSAVEVHPK
notes: two residues (GlySer) left from the protease recognition site after thrombin cleavage; laminin α4 chain, mouse, C-terminal coiled-coil fragment, residues 616-842 of the native chain (227 residues); source: E. coli JM109(DE3), purified (Ni2+-Sepharose, denaturing, 8 M urea), 6xHis tag removed by thrombin; not shown: 6xHis, N-terminal, cleaved; pPEP-T leader (short C-terminal fragment of the …)
binding result [4]: binds | binding result [5]: binds | binding result [6]: binds | binding result [7]: binds

B3: recombinant mouse laminin α5 chain C-terminal coiled-coil fragment (2525–2748) (domain or fragment)
chain: GSNAYSSILQAVQAAEDAAGQALRQASRTWEMVVQRGLAAGARQLLANSSALEETILGHQGRLGLAQGRLQAAGIQLHNVWARKNQLAAQIQEAQAMLAMDTSETSEKIAHAKAVAAEALSTATHVQSQLQGMQKNVERWQSQLGGLQGQDLSQVERDASSSVSTLEKTLPQLLAKLSRLENRGVHNASLALSANIGRVRKLIAQARSAASKVKVSMKFNGRSGVR
notes: two residues (GlySer) left from the protease recognition site after thrombin cleavage; laminin α5 chain, mouse, C-terminal coiled-coil fragment, residues 2525-2748 of the native chain (224 residues); source: E. coli JM109(DE3), purified (Ni2+-Sepharose, denaturing, 8 M urea), 6xHis tag removed by thrombin; not shown: 6xHis, N-terminal, cleaved
binding result [4]: binds | binding result [5]: binds | binding result [7]: binds

B4: recombinant mouse laminin α2 chain C-terminal coiled-coil fragment (1924–2145) (domain or fragment)
chain: GSYSNIKDYIDEAEKVAREAKELAQGATKLATSPQGLLKEDAKGSLQKSFRILNEAKKLANDVKGNHNDLNDLKTRLETADLRNSGLLGALNDTMDKLSAITNDTAAKLQAVKEKAREANDTAKAVLAQVKDLHQNLDGLKQNYNKLADSVAKTNAVVKDPSKNKIIADAGTSVRNLEQEADRLIDKLKPIKELEDNLKKNISEIKELINQARKQANSIKVSVS
notes: two residues (GlySer) left from the protease recognition site after thrombin cleavage; laminin α2 chain, mouse, C-terminal coiled-coil fragment, residues 1924-2145 of the native chain (222 residues); source: E. coli JM109(DE3), purified (Ni2+-Sepharose, denaturing, 8 M urea), 6xHis tag removed by thrombin; not shown: 6xHis, N-terminal, cleaved; pPEP-T leader (short C-terminal fragment of the …)
binding result [4]: binds | binding result [8]: binds | binding result [5]: binds

Second part, the binder after the results:

binding result [1]: binds | binding result [2]: binds | binding result [3]: binds
B5: recombinant mouse laminin β1 chain C-terminal coiled-coil fragment (1561–1786) (domain or fragment)
chain: T4 sequence 1
notes: two residues (GlySer) left from the protease recognition site after thrombin cleavage; laminin β1 chain, mouse, C-terminal coiled-coil fragment, residues 1561-1786 of the native chain (226 residues); source: E. coli JM109(DE3), purified (Ni2+-Sepharose, denaturing, 8 M urea), 6xHis tag removed by thrombin; not shown: 6xHis, N-terminal, cleaved

binding result [1]: binds
B6: recombinant mouse laminin β3 chain C-terminal coiled-coil fragment (945–1168) (domain or fragment)
chain: GSLSQTKQDIARARRLQAEAEQARSRAHAVEGQVDDVVGNLRQGTVALQEAQDTMQGTGRSLRLIQERVGEVQQVLVPAERLVKGMKEQMSGFWARMKELRRQAQEEQAQAMQARQLAEGASQQAMNAQEGFKRLKQKYTELKDRLGQSPVLGEQGNRILSIKMEAEELFGETMEMMDKMKDMESELLRGSQAIMLRSADLSGLEKRVEQIRSYINGRVLYYATCK
notes: two residues (GlySer) left from the protease recognition site after thrombin cleavage; laminin β3 chain, mouse, C-terminal coiled-coil fragment, residues 945-1168 of the native chain (224 residues); source: E. coli JM109(DE3), purified (Ni2+-Sepharose, denaturing, 8 M urea), 6xHis tag removed by thrombin; not shown: 6xHis, N-terminal, cleaved

binding result [4]: binds | binding result [5]: binds
B7: recombinant mouse laminin α1 chain C-terminal coiled-coil fragment (1911–2125) (domain or fragment)
chain: GSHVHSNIQTLTEEAEMLAADAHKTANKTDLISESLASRGKAVLQRSSRFLKESVSTRRKQQGITMKLDELKNLTSQFQESMDNIMKQANDSLAMLRESPGGMREKGRKARELAAAANESAVKTLEDVLALSLRVFNTSEDLSRVNATVQETNDLLHNSTMTTLLAGRKMKDMEMQANLLLDRLKPLKTLEENLSRNLSEIKLLISRARKQVASIKV
notes: two residues (GlySer) left from the protease recognition site after thrombin cleavage; laminin α1 chain, mouse, C-terminal coiled-coil fragment, residues 1911-2125 of the native chain (215 residues); source: E. coli JM109(DE3), purified (Ni2+-Sepharose, denaturing, 8 M urea), 6xHis tag removed by thrombin; not shown: 6xHis, N-terminal, cleaved; pPEP-T leader (short C-terminal fragment of the …)
